Laboratory results from patent US20210230599, “STEM-LOOP COMPOSITIONS AND METHODS FOR INHIBITING INTERLEUKIN-8” (VITRISA THERAPEUTICS, INC., published 2021).

What was measured:
[1] = molecular target: T1, Interleukin-8 (IL8, CXCL8), C-terminal His-tagged (Homo sapiens, UniProt P10145 SEQ:1-72); test: TR-FRET, 500 pM IL8; Table 10 gives 2 nM; bead flow 13 nM; conditions: tags: C-terminal 6xHis (Sino Biological); label: Alexa Fluor 647; stem-loop (3 stems, 4 loops)
Protocol: Under these assay conditions, the ability to measure the affinity accurately is limited by the input IL8 protein concentration, and the apparent Kd under these protein-limiting conditions was determined to be 8 nM.

[2] = molecular target: T1, Interleukin-8 (IL8, CXCL8), C-terminal …; test: competition; competition TR-FRET; S2 disrupted; conditions: tags: C-terminal 6xHis (Sino Biological)
Protocol: (§1) To better understand the sequence requirements and to confirm the stem structures of members of the Aptamer 3 family as determined from sequence covariation analysis from both the primary and secondary (degenerate) selections, a series of variants which included mutations and deletions to the predicted stems were synthesized and screened (Table 24). Activity of each of these variants were tested using a time resolved competition TR-FRET assay in which the labeled parent Aptamer 3 was competed with increasing concentrations of unlabeled variants for binding to IL8 (FIG. 14). Briefly, 2-fold dilutions of thermally equilibrated aptamers were made in TR-FRET Buffer (50 mM MOPS, pH 7.4, 125 mM NaCl, 5 mM KCl, 50 μM CHAPS, 0.1 mg/mL BSA, 1 mM CaCl₂, and 1 mM MgCl₂). 5 μL of aptamer or control solution was added to 5 μl mix of 10 nM C-terminal His-tagged-IL8, 60 nM ALEXA FLUOR® 647-labeled Aptamer, and 5 nM anti-His-Eu (Perkin Elmer) in a black wall low volume 384 well plate (Greiner). For control, 5 μl of 1000-fold excess of unlabeled parent aptamer or 5 μl TR-FRET buffer alone was added to the mix of ALEXA FLUOR® 647-labeled aptamer, His-IL8, and anti-His-Eu. The plate was covered with a plate seal and subsequently incubated in the dark for 1 hour at room temperature. The plate was read on a Biotek CYTATION™ 5 plate reader. […]

[3] = molecular target: T1, Interleukin-8 (IL8, CXCL8), C-terminal …; test: TR-FRET, 5 nM IL8, protein-limited; bead flow 18 nM; conditions: tags: C-terminal 6xHis (Sino Biological); label: Alexa Fluor 647
Protocol: (§2) Aptamers were synthesized and labeled with ALEXA FLUOR® 647, and binding to IL8 was quantified by Time-Resolved Fluorescence Resonance Energy Transfer (TR-FRET). Briefly, 2-fold dilutions of thermally equilibrated aptamers were made in TR-FRET Buffer (50 mM MOPS, pH 7.4, 125 mM NaCl, 5 mM KCl, 50 μM CHAPS, 0.1 mg/mL BSA, 1 mM CaCl₂ and 1 mM MgCl₂). […] of aptamer or control solution was added to 10 μL of 15 nM C-His-tagged-IL8 (Sino Biological) in a black wall half-area plate (Corning). In the same plate, 10 μl of aptamer solution was added to 10 μl of TR-FRET buffer alone to use for background subtraction. 10 μl of 15 nM anti-His-Eu (Perkin Elmer) was added to each well, the plate was covered with a plate seal and subsequently incubated in the dark for 1 hour at room temperature. The plate was read on a Biotek CYTATION™ 5 plate reader. Samples were excited at 330 nm and fluorescent values were collected at 665 nm. […] Apparent Kd values obtained for the fits are calculated as the concentration of half-maximal binding and shown in Table 10, and fit curves as FIG. 6. […] It is also possible that differences may arise due to TR-FRET being a homogenous solution binding assay, while bead binding has immobilized ligand and is non-homogenous, so bound aptamers may dissociate during analysis resulting in higher calculated Kd values.

[4] = molecular target: T1, Interleukin-8 (IL8, CXCL8), C-terminal …; test: flow; appreciable binding, bead-immobilized IL8, 10 and 100 nM aptamer; conditions: tags: C-terminal 6xHis (Sino Biological); label: Alexa Fluor 647
Protocol: (§3) Chemically synthesized aptamers (Table 8) were labeled with ALEXA FLUOR® 647 and were used to test binding to IL8 in a bead based assay using flow cytometry. In brief, fluorescently labeled aptamers were heated at 90° C. for 3 minutes in SB1T and were allowed to cool at room temperature for 5 minutes, after which they were incubated with c-his-IL8, immobilized on DYNABEADS® His-Tag Isolation and Pulldown beads in SB1T buffer containing 0.1% BSA, 1 μg/μl ssDNA and 1 μg/μl heparin sulphate at two different aptamer concentrations: 10 nM and 100 nM. Following incubation for 30 minutes at 37° C., the beads were washed three times with SB1T, re-suspended in SB1T buffer and analyzed by flow cytometry. […] Negligible or complete lack of binding seen in cases of some aptamers (e.g., Aptamers 4, 9, 10, and 16) could be due to the removal of the constant regions. No binding was observed when similar experiments were performed in the absence of protein (data not shown).

[5] = molecular target: T1, Interleukin-8 (IL8, CXCL8), C-terminal …; test: TR-FRET, 1 mM Ca, 1 mM Mg, room temperature; conditions: tags: C-terminal 6xHis (Sino Biological); label: Alexa Fluor 647
Protocol: as §2

[6] = molecular target: T1, Interleukin-8 (IL8, CXCL8), C-terminal …; test: TR-FRET, 5 nM IL8, protein-limited; bead flow 13 nM; conditions: tags: C-terminal 6xHis (Sino Biological); label: Alexa Fluor 647
Protocol: as §2

[7] = molecular target: T1, Interleukin-8 (IL8, CXCL8), C-terminal …; test: TR-FRET, 5 nM IL8, protein-limited; conditions: tags: C-terminal 6xHis (Sino Biological); label: Alexa Fluor 647
[8] = molecular target: T1, Interleukin-8 (IL8, CXCL8), C-terminal …; test: competition; competition TR-FRET; conditions: tags: C-terminal 6xHis (Sino Biological); stem-loop
[9] = molecular target: T1, Interleukin-8 (IL8, CXCL8), C-terminal …; test: flow; bead-immobilized IL8, 37 C; conditions: tags: C-terminal 6xHis (Sino Biological); label: Alexa Fluor 647
Protocol: as §3
Flow cytometry was used to measure the apparent binding affinity for Aptamer 2, Aptamer 3, Aptamer 5, Aptamer 6, Aptamer 8, Aptamer 11, Aptamer 12, Aptamer 13, Aptamer 14, Aptamer 20, Aptamer 22, Aptamer 23, and Aptamer 25 using bead immobilized c-his-IL8. […] Following incubation for 30 minutes at 37° C., the beads were washed and fluorescence was measured by flow cytometry. […]

[10] = molecular target: T1, Interleukin-8 (IL8, CXCL8), C-terminal …; test: TR-FRET; GAG-site binder, displaced by heparan sulfate IC50 9 uM; conditions: tags: C-terminal 6xHis (Sino Biological); label: Alexa Fluor 647
Description: Differences between these TR-FRET values (Table 10) and those from the bead binding assay (Table 9) may be due to a different limiting concentration of IL8. […] It is also possible that differences may arise due to TR-FRET being a homogenous solution binding assay, while bead binding has immobilized ligand and is non-homogenous, so bound aptamers may dissociate during analysis resulting in higher calculated Kd values.
Aptamer 1 (C6NH₂-[…]-idT, where C and U are 2′F, A and G are 2′OH; C6NH₂ is a hexylamino linker; and idT is a 3′ inverted deoxythymidine residue (SEQ ID NO: 75 with modifications)) was used as a positive control for an aptamer that binds to the GAG binding site. Aptamers 1, 3, 6, 8 and 11 were labeled with ALEXAFLUOR® 647 as described in Example 3. […] Briefly, 2-fold dilutions of heparan sulfate (Sigma Aldrich) were made in TR-FRET Buffer (50 mM MOPS, pH 7.4, 125 mM NaCl, 5 mM KCl, 50 μM CHAPS, 0.1 mg/mL BSA, 1 mM CaCl₂ and 1 mM MgCl₂). […] heparan sulfate or control solution were added to […] a mixture of 10 nM C-His-tagged-IL8 (Sino Biological), 5 nM anti-His-Eu (Perkin Elmer), and 30 nM AlexaFluor® 647-labeled aptamer in TR-FRET in a black low volume 384-well plate (Greiner). The plate was covered with a plate seal and subsequently incubated in the dark for 1 hour at room temperature. The plate was read on a Biotek CYTATION™ 5 plate reader. […]

[11] = molecular target: T1, Interleukin-8 (IL8, CXCL8), C-terminal …; test: competition; competition TR-FRET; S3 mutant; conditions: tags: C-terminal 6xHis (Sino Biological)
Protocol: as §1

[12] = molecular target: T1, Interleukin-8 (IL8, CXCL8), C-terminal …; test: competition; competition TR-FRET; S3 extended; conditions: tags: C-terminal 6xHis (Sino Biological)
Protocol: as §1

UGAUGACGGUAGAUUACGGGUAGAGUGACCGCAUCU (ssRNA, 2'-F G, 2'-OMe A/C/U, 5' C6NH2, 3' idT) [Aptamer 3]
Kd [1]: 0.214 nM

UGAUGACCCUAGAUUACGGGUAGAGUGACCGCAUCU (ssRNA, 2'-F G, 2'-OMe A/C/U, 5' C6NH2, 3' idT) [Aptamer 188]
binding signal [2]: > 10 fold worse than Aptamer 3

UCAGGCUGAAAAGUGAGCUAUAAUGUCCUGAUUGAU (ssRNA, 2'-F G, 2'-OMe A/C/U, 5' C6NH2, 3' idT) [Aptamer 6]
Kd [3]: 2 nM

UCAUGGGUUGCCAACCGGCCGUGUAUGUACGUACAU (ssRNA, 2'-F G, 2'-OMe A/C/U, 5' C6NH2, 3' idT) [Aptamer 25]
binding result [4]: binds

UGUCGCCCUACGUAAACCGCUAUUUGCGACUGCGGU (ssRNA, 2'-F G, 2'-OMe A/C/U, 5' C6NH2, 3' idT) [Aptamer 19]
Kd [5]: 4 nM

UCCGGUUGCUGAGAUGUGAGAUUAAUGUCCACCGUU (ssRNA, 2'-F G, 2'-OMe A/C/U, 5' C6NH2, 3' idT) [Aptamer 11]
Kd [6]: 2 nM

UUAUUGCGGCCCGAUUUACCGAAUUUGCCGUCCGGU (ssRNA, 2'-F G, 2'-OMe A/C/U, 5' C6NH2, 3' idT) [Aptamer 7]
Kd [7]: 2 nM

GCGACGGUAGAUUACGGGUAGAGUGACCGCGC (ssRNA, 2'-F G, 2'-OMe A/C/U, 5' C6NH2, 3' idT) [Aptamer 42]
binding signal [8]: ~1.4 fold worse than Aptamer 3

UGACUGCGGUCGCAAGUUACGGAUUUGCCGCCCCGU (ssRNA, 2'-F G, 2'-OMe A/C/U, 5' C6NH2, 3' idT) [Aptamer 20]
Kd [9]: 15 nM

GGGGGCUUAUCAUUCCAUUUAGUGUUAUGAUAACC (ssRNA, 2'-F C and U, 2'-OH A and G, 5' C6NH2, 3' idT) [Aptamer 1]
Kd [10]: 3 nM

GGCGACGGUAGACUACGGGUAGAGUGACCGCGCC (ssRNA, 2'-F G, 2'-OMe A/C/U, 5' C6NH2, 3' idT) [Aptamer 89]
binding signal [11]: > 10 fold worse than Aptamer 3

GGCGACGGUAGAUCACGGGUAGGGUGACCGCGCC (ssRNA, 2'-F G, 2'-OMe A/C/U, 5' C6NH2, 3' idT) [Aptamer 90]
binding signal [12]: > 10 fold worse than Aptamer 3
